This note sets out measurements from article doi:10.1101/860916 (bioRxiv, 2019).

Test [1] addresses SsgB of S. coelicolor, wild type, His6-tagged (Streptomyces coelicolor) (UniProt Q9L268). Briefly: SEC.
Test [2] shares this target. Briefly: crystal structure.
For test [3], the target named is T1, FtsZ of S. coelicolor, C-terminal His-tag fusion (Streptomyces coelicolor, UniProt P45500 1-399).
T1 sequence (looked up): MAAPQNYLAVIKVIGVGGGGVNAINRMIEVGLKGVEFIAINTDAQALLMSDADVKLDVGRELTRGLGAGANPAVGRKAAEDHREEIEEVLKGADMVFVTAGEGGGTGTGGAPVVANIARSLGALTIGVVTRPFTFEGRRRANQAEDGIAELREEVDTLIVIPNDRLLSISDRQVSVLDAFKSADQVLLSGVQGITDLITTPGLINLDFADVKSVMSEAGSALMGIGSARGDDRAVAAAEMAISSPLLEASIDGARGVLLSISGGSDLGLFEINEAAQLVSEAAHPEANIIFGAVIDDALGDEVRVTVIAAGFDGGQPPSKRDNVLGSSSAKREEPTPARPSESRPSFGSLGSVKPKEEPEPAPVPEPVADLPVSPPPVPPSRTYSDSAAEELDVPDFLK
Briefly: co-sedimentation.

Positions count from the first letter of the chain named. In names and notes the source's numbering stands.

One may read the stoichiometry N as a count of units in the complex or per binding partner. Regarding “SsgB of S. coelicolor, wild type, His6-tagged (from UniProt Q9L268 1-137) (natural protein)”, the stoichiometry N in test [1] and in test [2] was 3 each time.

B1: SsgB of S. coelicolor, wild type, His6-tagged (natural protein, Streptomyces coelicolor, UniProt Q9L268 1-137, looked up)
chain: MNTTVSCELHLRLVVSSESSLPVPAGLRYDTADPYAVHATFHTGAEETVEWVFARDLLAEGLHRPTGTGDVRVWPSRSHGQGVVCIALSSPEGEALLEAPARALESFLKRTDAAVPPGTEHRHFDLDQELSHILAES
Turning to B1, the binding result in test [3] is on record as “binds”.

B2: SsgB E120A of S. coelicolor, His6-tagged (natural protein, Streptomyces coelicolor, UniProt Q9L268 1-137, looked up)
chain: B1 chain with E120A
As to B2, the binding result in test [3] was “binds”.

B3: SsgB E120G of S. coelicolor, His6-tagged (natural protein, Streptomyces coelicolor, UniProt Q9L268 1-137, looked up)
chain: B1 chain with E120G
Turning to B3, the binding result in test [3] is on record as “binds”.
